From PMC9239096

Test system: T1, KdpE-MBP (Sinorhizobium fredii CCBAU45436 (SF4)), ORF:2638478e
T1 sequence: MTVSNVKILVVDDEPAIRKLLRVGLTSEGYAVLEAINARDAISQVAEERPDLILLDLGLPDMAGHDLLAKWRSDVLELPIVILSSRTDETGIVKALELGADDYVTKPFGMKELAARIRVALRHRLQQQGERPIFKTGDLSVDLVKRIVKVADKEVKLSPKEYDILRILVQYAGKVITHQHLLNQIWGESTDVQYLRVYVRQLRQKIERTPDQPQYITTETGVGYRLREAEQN
Test: EMSA
Conditions: 25 mM Tris-HCl pH 8.0, 0.5 mg/mL BSA, 0.1 mg/mL sonicated salmon sperm DNA, 5% glycerol, 0.05% DDM; 10 uL, 20 C, 30 min; 6% native PAGE

Which binding does the source give for “TCCTCCTGCGCCTCTCTCGAACCTTTATGCGGTTCGGAGCCATATTCCTGACAAGATCCATCCACCGCCGCGCCGAACTCGATCGTCGCGCCGGGATGCGCACATCGATCGCGATCACCTGCCGGGCGGCCCGGCGCTGCCTCCAGGTGACGCGCAGTCAGTAGAAACAACGCACAGGGATTACCGACATGGACATTGTCGTTCTCGCAATAGGCATCGTGTTCTTCGCCTTATCGTTTGCCTATGTCCGGGCGTGCAGCAACCTCTAATCGCGGAGCGGAAAGATG (double strand) [Probe1_kdpF]” here?
Its binding is “no binding”.
